In FireProtDB (doi:10.1038/s41598-020-57873-3):

B1: N142P|I144P|N377P, Q8GB52 (parent)
chain: MLKKVLSCCIAATFGIYSASSLAQSSVINSTENSQQPIAPLVLASSDDAITDRYIVVLKQPQMLMNDAAGLQQFTQQTVGLMANSFSIKTDDVFDSSIIGFVANLDALQLKQLRRDSRVEYIEQDQILSIDPVVSNEAVQSNAIWGLDRIDQRNLPLDRNYNANFDGFGVTAYVIDTGVNNNHEEFGGRSVSGYDFVDNDADSSDCNGHGTHVAGTIGGSQYGVAKNVNIVGVRVLSCSGSGTTSGVISGVDWVAQNASGPSVANMSLGGGQSTALDSAVQGAIQSGVSFMLAAGNSNADACNTSPARVPSGVTVGSTTSSDSRSSFSNWGSCVDLFAPGSQIKSAWYDGGYKTISGTSMATPHVAGVAALYLQENNGLTPLQLTGLLNSRASENKVSDTRGTTNKLLYSLADSGCEPDCGGPTPGPDPDGKLVSGVPVNGLSGSRGQKDYFYMDLQQGQQLTVVTIGGTGDADLYLRFGDKPTLNTWDCRPYRSGNSETCTVNVTQSGRYHVMLNAYSAYSGLTLQANF

Variants of: B1
Conditions: Vibrio sp. PA-44, pH 8.6, Thermal, structure 1SH7, whole UniProt chain shown
[1] = CD, Glycine 25 mM, NaCl and CaCl2 100 mM and 15 mM
[2] = CD, glycine, Nacl / Cacl2 100000 / 15000, transition: 2, reversible: no
[3] = DSC, Glycine 25 mM, NaCl and CaCl2 100 mM and 15 mM
[4] = DSC, glycine, Nacl / Cacl2 100000 / 15000, transition: 2, reversible: no

Variant	Tm [1] [°C]	change of melting temperature, mutant - wild type (higher = more stable) [1] [°C]	Tm [2] [°C]	change of melting temperature, mutant - wild type (higher = more stable) [2] [°C]	Tm [3] [°C]	change of melting temperature, mutant - wild type (higher = more stable) [3] [°C]	unfolding enthalpy (calorimetric) [3] [kcal/mol]	Tm [4] [°C]	change of melting temperature, mutant - wild type (higher = more stable) [4] [°C]	unfolding enthalpy (calorimetric) [4] [kcal/mol]
N142P I144P N377P	68.8	6.9	68.8	6.9	72	8.1	163	72	8.1	162
N377P			60.7	-1.2	63.6	-0.3	133	63.6	-0.3	133
N142P I144P	67.8	5.9	67.8	5.9	72	8.1	155	72	8.1	154
N142P	64.8	2.9			66.8	2.9	128	66.8	2.9	127
N142P I144P N377P T404P	72.1	10.2	72.1	10.2	77.2	13.3	164	77.2	13.3	163
